Data published in patent US12558350B2, “Compositions and methods for treatment” (Bausch + Lomb Ireland Limited, priority 2005, dated 2026).

How the values were obtained:
LFA-1 [1] = target: T1, LFA-1 (Homo sapiens, UniProt P05107+P20701); test: LFA-1/small molecule ELISA, antagonist competition with compound 2B; settings: 25 nM compound 2B; FIG. 8B; read-out: IC50, inhibition of binding of compound 2B to LFA-1
T1 construct: made in house; host or cells: human 293 cells
Method: 96-well plates were coated with 5 μg/ml (33.3 nM) mouse anti-human 82 integrin (a non-function blocking antibody) in phosphate-buffered saline (PBS) overnight at 4° C. The plates were blocked with assay buffer (20 mM Hepes, pH 7.2, 140 mM NaCl, 1 mM MnCl2, 0.5% bovine serum albumin (BSA) and 0.05% Tween-20) for 1 hour at room temperature. After washing in buffer (50 mM Tris-HCl, pH 7.5, 100 mM NaCl, 1 mM MnCl2, and 0.05% Tween-20), 8 nM LFA-1 (LFA-1/ICAM-1 ELISA) or 2 nM LFA-1 (LFA-1/small molecule ELISA) were added, followed by incubation for 1 h at 37° C. […] In the LFA-1/small molecule ELISA, the diluted antagonists and 25 nM compound 2B were added concurrently to the plates, followed by a 2-hour incubation at 37° C. Sheep anti-fluorescein-HRP was added after a wash and incubated for one hour at 37° C. For both assays, after washing, the bound HRP-conjugated antibodies were detected by addition of tetramethylbenzidine (TMB) followed by measurement of the absorbance of the product at 450 nm after the addition of 1 M H3PO4 to stop the reaction. The IC50 values for each curve were determined by fitting to the four-parameter equation described above using KaleidaGraph software.

LFA-1/ICAM-1 = target: T2, LFA-1/ICAM-1 (Homo sapiens, UniProt P05107+P20701); test: LFA-1/ICAM-1 ligand binding ELISA with Schild analysis
T2 construct: made in house; host or cells: human 293 cells
T2 sequence (P20701 26-1170): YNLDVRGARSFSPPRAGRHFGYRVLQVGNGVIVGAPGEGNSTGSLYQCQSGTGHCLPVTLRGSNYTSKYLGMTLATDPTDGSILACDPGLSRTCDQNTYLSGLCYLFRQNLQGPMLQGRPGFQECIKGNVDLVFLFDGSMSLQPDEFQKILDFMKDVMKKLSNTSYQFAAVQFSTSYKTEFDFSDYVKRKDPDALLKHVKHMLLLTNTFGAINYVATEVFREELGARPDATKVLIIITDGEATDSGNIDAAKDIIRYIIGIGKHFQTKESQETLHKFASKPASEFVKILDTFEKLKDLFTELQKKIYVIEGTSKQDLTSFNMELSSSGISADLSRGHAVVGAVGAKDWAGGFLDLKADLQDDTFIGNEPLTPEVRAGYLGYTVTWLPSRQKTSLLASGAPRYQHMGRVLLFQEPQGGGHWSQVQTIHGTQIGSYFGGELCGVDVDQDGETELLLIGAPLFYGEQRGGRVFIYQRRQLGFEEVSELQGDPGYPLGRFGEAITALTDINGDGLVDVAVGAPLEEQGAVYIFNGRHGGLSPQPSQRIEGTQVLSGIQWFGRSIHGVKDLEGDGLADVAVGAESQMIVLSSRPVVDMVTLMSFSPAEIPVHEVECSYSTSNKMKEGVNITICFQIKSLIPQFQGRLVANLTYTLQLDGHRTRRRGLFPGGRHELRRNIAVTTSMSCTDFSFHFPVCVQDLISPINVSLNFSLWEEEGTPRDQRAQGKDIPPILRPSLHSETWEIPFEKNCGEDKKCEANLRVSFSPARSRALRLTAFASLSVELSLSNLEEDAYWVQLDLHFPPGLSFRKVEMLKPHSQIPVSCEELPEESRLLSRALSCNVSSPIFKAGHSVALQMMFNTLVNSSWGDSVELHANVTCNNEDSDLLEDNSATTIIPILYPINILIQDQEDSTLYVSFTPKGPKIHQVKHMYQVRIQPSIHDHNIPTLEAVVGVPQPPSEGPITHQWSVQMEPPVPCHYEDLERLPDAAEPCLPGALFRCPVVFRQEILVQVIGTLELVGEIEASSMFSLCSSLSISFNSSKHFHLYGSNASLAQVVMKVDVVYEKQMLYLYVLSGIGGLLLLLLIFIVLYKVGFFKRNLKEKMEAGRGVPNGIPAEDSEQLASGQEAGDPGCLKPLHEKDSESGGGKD
T2 sequence (P05107 23-769): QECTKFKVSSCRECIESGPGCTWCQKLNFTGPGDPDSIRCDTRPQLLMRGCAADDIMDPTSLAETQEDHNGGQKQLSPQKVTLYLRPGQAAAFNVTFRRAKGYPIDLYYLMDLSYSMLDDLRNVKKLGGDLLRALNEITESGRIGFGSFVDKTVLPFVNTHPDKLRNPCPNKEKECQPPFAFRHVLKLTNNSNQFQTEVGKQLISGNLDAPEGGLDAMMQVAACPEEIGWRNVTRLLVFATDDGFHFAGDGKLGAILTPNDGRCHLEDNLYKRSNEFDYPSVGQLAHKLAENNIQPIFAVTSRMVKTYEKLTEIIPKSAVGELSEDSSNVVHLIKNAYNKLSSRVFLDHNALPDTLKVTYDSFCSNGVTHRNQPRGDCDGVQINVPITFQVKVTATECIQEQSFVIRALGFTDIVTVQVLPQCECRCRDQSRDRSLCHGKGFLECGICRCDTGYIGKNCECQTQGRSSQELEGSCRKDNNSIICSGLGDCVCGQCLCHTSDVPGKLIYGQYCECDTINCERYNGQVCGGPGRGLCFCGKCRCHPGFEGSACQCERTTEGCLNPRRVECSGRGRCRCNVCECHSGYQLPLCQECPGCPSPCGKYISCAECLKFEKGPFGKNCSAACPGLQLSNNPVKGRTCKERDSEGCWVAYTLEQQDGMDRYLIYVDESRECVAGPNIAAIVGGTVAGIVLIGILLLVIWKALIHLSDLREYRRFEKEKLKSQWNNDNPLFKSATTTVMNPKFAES
Text: (§1) Pharmacologic Analysis of Drug-Receptor Interaction, Lippincott-Raven, Philadelphia). […] The order of antagonist concentrations was, -[…]-(lowest added antagonist concentration), -Δ-, -μ-, -♦-, -▪-, -σ- to -λ-(highest antagonist concentration). The fits of the data are shown as the solid lines. The data shown are from one plate and are representative of a minimum of two experiments.
This model is based upon the assumptions that equiactive responses in an assay are the result of equivalent occupancy of receptor by ligand and that maximal binding is unchanged by the presence of antagonist. In a Schild analysis, the dose ratio is the ratio of the EC50 values in the presence and absence of antagonist and is a measure of the ligand concentrations leading to equiactive responses. This dose ratio was determined for each concentration of antagonist and the Schild regressions were plotted as shown in FIG. 11.
(§2) In all cases the ligand was added concurrently with the antagonist. The plates were incubated for 6 h at 37° C. to approach equilibrium conditions after antagonist and ligand addition, before wash and addition of the detection antibody. The EC50 values for each curve were determined by fitting with a four parameter model as described above. […] The slopes of the plots of the Log (Conc. ratio −1) vs. Antagonist concentration are calculated by fitting the line to the linear equation, Y=A+BX.

LFA-1 [2] = target: T1, LFA-1; test: LFA-1/small molecule ligand binding ELISA; settings: FIG. 10B, D, F
Method: as §1, §2

T1 sequence (P20701 26-1170): as the sequence (P20701 26-1170) above
T1 sequence (P05107 23-769): as the sequence (P05107 23-769) above

IC50 (LFA-1 [1]): 1200 nM | slope of Schild regression (LFA-1/ICAM-1; ligand ICAM-1-Ig, FIG. 11): 1.26 | y-intercept of Schild regression (LFA-1/ICAM-1; ligand ICAM-1-Ig, FIG. 11): 8.51 | effect of increasing antagonist concentration on compound 2B binding curves (LFA-1 [2]): showed a similar effect
B1: sICAM-1: truncated form of native ICAM-1 without the transmembrane and cytoplasmic domains, with intact LFA-1 binding epitope; R&D Systems (protein, UniProt P05362 28-480, looked up)
extracellular domain: QTSVSPSKVILPRGGSVLVTCSTSCDQPKLLGIETPLPKKELLLPGNNRKVYELSNVQEDSQPMCYSNCPDGQSTAKTFLTVYWTPERVELAPLPSWQPVGKNLTLRCQVEGGAPRANLTVVLLRGEKELKREPAVGEPAEVTTTVLVRRDHHGANFSCRTELDLRPQGLELFENTSAPYQLQTFVLPATPPQLVSPRVLEVDTQGTVVCSLDGLFPVSEAQVHLALGDQRLNPTVTYGNDSFSAKASVSVTAEDEGTQRLTCAVILGNQSQETLQTVTIYSFPAPNVILTKPEVSEGTEVTVKCEAHPRAKVTLNGVPAQPLGPRAQLLLKATPEDNGRSFSCSATLEVAGQLIHKNQTRELRVLYGPRLDERDCPGNWTWPENSQQTPMCQAWGNPLPELKCLKDGTFPLPIGESVTVTRDLEGTYLCRARSTQGEVTRKVTVNVLSPRYE
modifications: extracellular domain
notes: R&D Systems
effect of increasing antagonist concentration on ICAM-1-Ig binding curves (LFA-1/ICAM-1; FIG. 10A, C, E): shifted the ICAM-1-Ig binding curves rightward to higher EC50 values
